Experimental data taken from patent publication US20230212549A1 (3B PHARMACEUTICALS, published 2023).
Several values for one entry are separate records, joined by “and”; a condition that tells them apart may be missing. Equal entries are not always repeated. Numbered stars: 1 amine (or outer) side, 2 acyl side, 3 side chain; on linkers, the order of the positions; unused ones are H or OH. Bridge positions count the residues as written; N and C are the ends. Square brackets hold non-standard residues; d marks the D form. Primed or numbered codes have the meaning given here. * marks the point of attachment. Ttds″ = 1,13-diamino-4,7,10-trioxatridecan-succinamic acid spacer, O=C(CCC(=O)[*:2])NCCCOCCOCCOCCCN[*:1]; TBMB(SCH2CH2NH-DOTA) = O=C(O)CN1CCN(CC(=O)O)CCN(CC(=O)NCCSCc2cc(C[*:1])cc(C[*:2])c2)CCN(CC(=O)O)CC1; DOTA = O=C(O)CN1CCN(CC(=O)O)CCN(CC(=O)*)CCN(CC(=O)O)CC1; mXylylene = c1cc(C[*:1])cc(C[*:2])c1; Hexanoyl = CCCCCC(=O)*; NH(CH2)5NH2 = NCCCCCN*; GABA = NCCCC(=O)O

Key:
[1] = molecular target: Recombinant human FAP (R&D systems, #3715-SE) (human, UniProt Q12884 26-760); assay: cell-based or functional assay
[2] = molecular target: T1, fibroblast activation protein (FAP) on FAP-expressing human WI-38 fibroblasts (human, UniProt Q12884 1-760); assay: competitive FACS, WI-38 cells, vs Cy5 tracer m3; A = pIC50 >8.0
T1 construct: also called human FAP

Row | Binder | pIC50 Category (Activity) [1] | pIC50 Category (FACS) [2]
1 | Hexanoyl-CPPTQFCD[Ttds″]-{NH(CH2)5NH2-DOTA′} (linker 1-7 via mXylylene, also called 3BP-3404) [Hex-[Cys(3MeBn)-Pro-Pro-Thr-Gln-Phe-Cys]-Asp-Ttds-Ape-NH-DOTA′] | > 8 pIC50 | > 8 pIC50
2 | H-[dM]CPPTEFCDHFRD-NH2 (linker 2-8 via mXylylene; SMILES CSCC[C@@H](N)C(=O)N[C@H]1CSCc2cccc(c2)CSC[C@@H](C(=O)N[C@@H](CC(=O)O)C(=O)N[C@@H](Cc2c[nH]cn2)C(=O)N[C@@H](Cc2ccccc2)C(=O)N[C@@H](CCCNC(=N)N)C(=O)N[C@@H](CC(=O)O)C(N)=O)NC(=O)[C@H](Cc2ccccc2)NC(=O)[C@H](CCC(=O)O)NC(=O)[C@H]([C@@H](C)O)NC(=O)[C@@H]2CCCN2C(=O)[C@@H]2CCCN2C1=O, also called 3BP-2976) [H-met-[Cys(3MeBn)-Pro-Pro-Thr-Glu-Phe-Cys]-Asp-His-Phe-Arg-Asp-NH2] | > 8 pIC50 | > 8 pIC50
3 | Hexanoyl-CPPTQFCD-{NH(CH2)5NH2-DOTA′} (linker 1-7 via mXylylene, also called 3BP-3403) [Hex-[Cys(3MeBn)-Pro-Pro-Thr-Gln-Phe-Cys]-Asp-Ape-NH-DOTA′] | > 8 pIC50 | > 8 pIC50
4 | Hexanoyl-CPPTQFCS-OH (linker 1-7 via TBMB(SCH2CH2NH-DOTA); SMILES CCCCCC(=O)N[C@H]1CSCc2cc(CSCCNC(=O)CN3CCN(CC(=O)O)CCN(CC(=O)O)CCN(CC(=O)O)CC3)cc(c2)CSC[C@@H](C(=O)N[C@@H](CO)C(=O)O)NC(=O)[C@H](Cc2ccccc2)NC(=O)[C@H](CCC(N)=O)NC(=O)[C@H]([C@@H](C)O)NC(=O)[C@@H]2CCCN2C(=O)[C@@H]2CCCN2C1=O, also called 3BP-3658) [Hex-[Cys(tMeBn(DOTA-AET))-Pro-Pro-Thr-Gln-Phe-Cys]-Ser-OH] | > 8 pIC50 | > 8 pIC50
5 | Hexanoyl-CPPTQFCG-OH (linker 1-7 via TBMB(SCH2CH2NH-DOTA); SMILES CCCCCC(=O)N[C@H]1CSCc2cc(CSCCNC(=O)CN3CCN(CC(=O)O)CCN(CC(=O)O)CCN(CC(=O)O)CC3)cc(c2)CSC[C@@H](C(=O)NCC(=O)O)NC(=O)[C@H](Cc2ccccc2)NC(=O)[C@H](CCC(N)=O)NC(=O)[C@H]([C@@H](C)O)NC(=O)[C@@H]2CCCN2C(=O)[C@@H]2CCCN2C1=O, also called 3BP-3656) [Hex-[Cys(tMeBn(DOTA-AET))-Pro-Pro-Thr-Gln-Phe-Cys]-Gly-OH] | > 8 pIC50 | > 8 pIC50
6 | Ac-MCPPTEFCDHFRD-NH2 (linker 2-8 via mXylylene; SMILES CSCC[C@H](NC(C)=O)C(=O)N[C@H]1CSCc2cccc(c2)CSC[C@@H](C(=O)N[C@@H](CC(=O)O)C(=O)N[C@@H](Cc2c[nH]cn2)C(=O)N[C@@H](Cc2ccccc2)C(=O)N[C@@H](CCCNC(=N)N)C(=O)N[C@@H](CC(=O)O)C(N)=O)NC(=O)[C@H](Cc2ccccc2)NC(=O)[C@H](CCC(=O)O)NC(=O)[C@H]([C@@H](C)O)NC(=O)[C@@H]2CCCN2C(=O)[C@@H]2CCCN2C1=O, also called 3BP-2975) [Ac-Met-[Cys(3MeBn)-Pro-Pro-Thr-Glu-Phe-Cys]-Asp-His-Phe-Arg-Asp-NH2] | > 8 pIC50 | > 8 pIC50
7 | Ac-MCGPTEFCDHFRD-NH2 (linker 2-8 via mXylylene; SMILES CSCC[C@H](NC(C)=O)C(=O)N[C@H]1CSCc2cccc(c2)CSC[C@@H](C(=O)N[C@@H](CC(=O)O)C(=O)N[C@@H](Cc2c[nH]cn2)C(=O)N[C@@H](Cc2ccccc2)C(=O)N[C@@H](CCCNC(=N)N)C(=O)N[C@@H](CC(=O)O)C(N)=O)NC(=O)[C@H](Cc2ccccc2)NC(=O)[C@H](CCC(=O)O)NC(=O)[C@H]([C@@H](C)O)NC(=O)[C@@H]2CCCN2C(=O)CNC1=O, also called 3BP-3214) [Ac-Met-[Cys(3MeBn)-Gly-Pro-Thr-Glu-Phe-Cys]-Asp-His-Phe-Arg-Asp-NH2] | > 8 pIC50 | > 8 pIC50
8 | Ac-MCPPTEFCDHFRA-NH2 (linker 2-8 via mXylylene; SMILES CSCC[C@H](NC(C)=O)C(=O)N[C@H]1CSCc2cccc(c2)CSC[C@@H](C(=O)N[C@@H](CC(=O)O)C(=O)N[C@@H](Cc2c[nH]cn2)C(=O)N[C@@H](Cc2ccccc2)C(=O)N[C@@H](CCCNC(=N)N)C(=O)N[C@@H](C)C(N)=O)NC(=O)[C@H](Cc2ccccc2)NC(=O)[C@H](CCC(=O)O)NC(=O)[C@H]([C@@H](C)O)NC(=O)[C@@H]2CCCN2C(=O)[C@@H]2CCCN2C1=O, also called 3BP-3198) [Ac-Met-[Cys(3MeBn)-Pro-Pro-Thr-Glu-Phe-Cys]-Asp-His-Phe-Arg-Ala-NH2] | > 8 pIC50 | > 8 pIC50
9 | Ac-MCPPTEFCDHARD-NH2 (linker 2-8 via mXylylene; SMILES CSCC[C@H](NC(C)=O)C(=O)N[C@H]1CSCc2cccc(c2)CSC[C@@H](C(=O)N[C@@H](CC(=O)O)C(=O)N[C@@H](Cc2c[nH]cn2)C(=O)N[C@@H](C)C(=O)N[C@@H](CCCNC(=N)N)C(=O)N[C@@H](CC(=O)O)C(N)=O)NC(=O)[C@H](Cc2ccccc2)NC(=O)[C@H](CCC(=O)O)NC(=O)[C@H]([C@@H](C)O)NC(=O)[C@@H]2CCCN2C(=O)[C@@H]2CCCN2C1=O, also called 3BP-3196) [Ac-Met-[Cys(3MeBn)-Pro-Pro-Thr-Glu-Phe-Cys]-Asp-His-Ala-Arg-Asp-NH2] | > 8 pIC50 | > 8 pIC50
10 | Ac-MCPPTEFCDAFRD-NH2 (linker 2-8 via mXylylene; SMILES CSCC[C@H](NC(C)=O)C(=O)N[C@H]1CSCc2cccc(c2)CSC[C@@H](C(=O)N[C@@H](CC(=O)O)C(=O)N[C@@H](C)C(=O)N[C@@H](Cc2ccccc2)C(=O)N[C@@H](CCCNC(=N)N)C(=O)N[C@@H](CC(=O)O)C(N)=O)NC(=O)[C@H](Cc2ccccc2)NC(=O)[C@H](CCC(=O)O)NC(=O)[C@H]([C@@H](C)O)NC(=O)[C@@H]2CCCN2C(=O)[C@@H]2CCCN2C1=O, also called 3BP-3195) [Ac-Met-[Cys(3MeBn)-Pro-Pro-Thr-Glu-Phe-Cys]-Asp-Ala-Phe-Arg-Asp-NH2] | 7.1 pIC50 and 8 pIC50 | > 8 pIC50
11 | Hexanoyl-CPPTEFCD[GABA]R-NH2 (linker 1-7 via mXylylene; SMILES CCCCCC(=O)N[C@H]1CSCc2cccc(c2)CSC[C@@H](C(=O)N[C@@H](CC(=O)O)C(=O)NCCCC(=O)N[C@@H](CCCNC(=N)N)C(N)=O)NC(=O)[C@H](Cc2ccccc2)NC(=O)[C@H](CCC(=O)O)NC(=O)[C@H]([C@@H](C)O)NC(=O)[C@@H]2CCCN2C(=O)[C@@H]2CCCN2C1=O, also called 3BP-3300) [Hex-[Cys(3MeBn)-Pro-Pro-Thr-Glu-Phe-Cys]-Asp-Gab-Arg-NH2] | > 8 pIC50 | > 8 pIC50
12 | Hexanoyl-CPPTQFCD[Ttds″]K(DOTA)-NH2 (linker 1-7 via mXylylene; SMILES CCCCCC(=O)N[C@H]1CSCc2cccc(c2)CSC[C@@H](C(=O)N[C@@H](CC(=O)O)C(=O)NCCCOCCOCCOCCCNC(=O)CCC(=O)N[C@@H](CCCCNC(=O)CN2CCN(CC(=O)O)CCN(CC(=O)O)CCN(CC(=O)O)CC2)C(N)=O)NC(=O)[C@H](Cc2ccccc2)NC(=O)[C@H](CCC(N)=O)NC(=O)[C@H]([C@@H](C)O)NC(=O)[C@@H]2CCCN2C(=O)[C@@H]2CCCN2C1=O, also called 3BP-3395) [Hex-[Cys(3MeBn)-Pro-Pro-Thr-Gln-Phe-Cys]-Asp-Ttds-Lys(DOTA)-NH2] | > 8 pIC50 | > 8 pIC50
13 | Hexanoyl-CPPTEFCD[Ttds″]K(DOTA)-NH2 (linker 1-7 via mXylylene; SMILES CCCCCC(=O)N[C@H]1CSCc2cccc(c2)CSC[C@@H](C(=O)N[C@@H](CC(=O)O)C(=O)NCCCOCCOCCOCCCNC(=O)CCC(=O)N[C@@H](CCCCNC(=O)CN2CCN(CC(=O)O)CCN(CC(=O)O)CCN(CC(=O)O)CC2)C(N)=O)NC(=O)[C@H](Cc2ccccc2)NC(=O)[C@H](CCC(=O)O)NC(=O)[C@H]([C@@H](C)O)NC(=O)[C@@H]2CCCN2C(=O)[C@@H]2CCCN2C1=O, also called 3BP-3396) [Hex-[Cys(3MeBn)-Pro-Pro-Thr-Glu-Phe-Cys]-Asp-Ttds-Lys(DOTA)-NH2] | > 8 pIC50 | > 8 pIC50
